Source: patent US20090004190A1, “Rage Fusion Proteins And Methods Of Use” (priority 2006, published 2009)

Assays:
S100b (S100) = target: T1, S100b (S100) (Homo sapiens, UniProt P04271); experiment: In vitro ligand binding (ELISA) to immobilized S100b; settings: ligand 5 micrograms per well; FIG. 7
T1 sequence (P04271 1-92): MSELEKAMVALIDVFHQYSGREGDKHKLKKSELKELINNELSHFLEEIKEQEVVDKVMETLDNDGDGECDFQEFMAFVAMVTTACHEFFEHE
Procedure: (§1) For example, the RAGE fusion protein may be used in a binding assay to identify potential RAGE ligands. In one example embodiment of such a binding assay, a known RAGE ligand may coated onto a solid substrate (e.g., Maxisorb plates) at a concentration of about 5 micrograms per well, where each well contains a total volume of about 100 microliters (μL). The plates may be incubated at 4° C. overnight to allow the ligand to absorb. Alternatively, shorter incubation periods at higher temperature (e.g., room temperature) may be used. […] The RAGE fusion protein bound to the immobilized ligand may be detected in a variety of ways. […] The bound complex may be detected by adding the alkaline phosphatase substrate, para-nitrophenylphosphate (PNPP), and measuring conversion of PNPP to para-nitrophenol (PNP) as an increase in absorbance at 405 nm. […] In the absence of ligand (i.e., coating with only BSA) there was no increase in absorbance. […] Binding was detected by the addition of an immunodetection complex containing a monoclonal mouse anti-human IgG1 diluted 1:11,000 to a final assay concentration (FAC) of 21 ng/100 μL, a biotinylated goat anti-mouse IgG diluted 1:500, to a FAC of […], and an avidin-linked alkaline phosphatase. […]

[1] = target: T2, amyloid-beta (Abeta) (Amyloid Beta (1-40)) (Homo sapiens, UniProt P05067); experiment: In vitro ligand binding (ELISA) to immobilized amyloid-beta; settings: ligand 5 micrograms per well; FIG. 7
T2 construct: Amyloid Beta (1-40) from Biosource; purchased Biosource
T2 sequence (P05067 672-711): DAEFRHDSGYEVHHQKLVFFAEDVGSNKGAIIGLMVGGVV
Procedure: as §1

Fc receptor = Fc receptor activation: TNF-α secretion from THP-1 cells; type: cell-based; settings: well precoated with 10 ug/well heat aggregated protein, 24 hours, FIG. 12
Excerpt: Fc stimulation results in TNF-α secretion.

[2] = Pharmacokinetic profile of TTP-4000 after IV injection (plasma ELISA); type: in vivo; settings: monkeys, single IV bolus 5 mg/kg, after ligands saturated, FIG. 11
Procedure: Blood samples (approximately 1.0 mL) were collected at pre-dose (i.e., prior to injection of the TTP4000), or at 0.083, 0.25, 0.5, 2, 4, 8, 12, 24, 48, 72, 96, 120, 168, 240, 288, and 336 hours post dose into tubes containing (lithium heparin). Following collection, the tubes were placed on wet ice (maximum 30 minutes) until centrifugation under refrigeration (at 2 to 8° C.) at 1500×g for 15 minutes. Each harvested plasma sample was then stored frozen (−70° C.±10° C.) until assayed for RAGE polypeptide using an ELISA at various time-points following the injection, as described in Example 6.
Initially, 50 uL of the RAGE specific monoclonal antibody 1HB1011 at a concentration of 10 ug/mL in 1×PBS pH 7.3 is coated on plates via overnight incubation. When ready for use, plates are washed three times with 300 uL of 1× Imidazole-Tween wash buffer and blocked with 1% BSA. […] The samples are allowed to incubate at room temperature for one hour. After incubation, the plates are plates are washed three times. A Goat Anti-human IgG11 (Sigma A3312) […] conjugate in 1×PBS with 1% BSA is added and allowed to incubate at room temperature for 1 hour. The plates are washed three times. Color was elucidated with paranitrophenylphosphate.

B1: TTP-4000: four domain RAGE fusion protein: human RAGE V and C1 domains with interdomain linkers (to residue 251) fused to human IgG1 CH2 and CH3; SEQ ID NO: 34/56 (protein, listed as Homo sapiens)
chain: QNITARIGEPLVLKCKGAPKKPPQRLEWKLNTGRTEAWKVLSPQGGGPWDSVARVLPNGSLFLPAVGIQDEGIFRCQAMNRNGKETKSNYRVRVYQIPGKPEIVDSASELTAGVPNKVGTCVSEGSYPAGTLSWHLDGKPLVPNEKGVSVKEQTRRHPETGLFTLQSELMVTPARGGDPRPTFSCSFSPGLPRHRALRTAPIQPRVWEPVPLEEVQLVVEPEGGAVAPPSVFLFPPKPKDTLMISRTPEVTCVVVDVSHEDPEVKFNWYVDGVEVHNAKTKPREEQYNSTYRVVSVLTVLHQDWLNGKEYKCKVSNKALPAPIEKTISKAKGQPREPQVYTLPPSRDELTKNQVSLTCLVKGFYPSDIAVEWESNGQPENNYKTTPPVLDSDGSFFLYSKLTVDKSRWQQGNVFSCSVMHEALHNHYTQKSLSLSPGK
Which “binding to immobilized S100b (absorbance at 405 nm)” value (S100b (S100)) does the source give for B1 here?
The value was “specifically interact”.

And the “binding to immobilized amyloid-beta (absorbance at 405 nm)” value [1]?
Its value is “specifically interact”.

And the TNF generated (Fc receptor)?
The TNF generated was “less than 2 ng/well”.

What about the terminal half-life [2] of the same molecule?
Its terminal half-life is “greater than 300 hours”.
